Numbered stars: 1 amine (or outer) side, 2 acyl side, 3 side chain; on linkers, the order of the positions; unused ones are H or OH. Square brackets hold non-standard residues; d marks the D form. Ends that are not written are not given here. * marks the point of attachment. Biotin = O=C1N[C@H]2[C@H](CS[C@H]2CCCCC(=O)*)N1; Ttds = O=C(CCC(=O)[*:2])NCCCOCCOCCOCCCN[*:1]
T1: RPSFSLVEDTTLEPEG-Ttds-Lys(Biotin) (human)
T1 construct: Synthesized by JPT Peptide Technology
T1 peptide: RPSFSLVEDTTLEPEG[Ttds]K(Biotin)

T2: hFGFR1β-Fc (IIIc) (human, UniProt P11362-14 22-285, limits assumed, biotinylated with biotin-LC-NHS)
T2 construct: Bought, R&D Systems 661-FR
T2 sequence (looked up): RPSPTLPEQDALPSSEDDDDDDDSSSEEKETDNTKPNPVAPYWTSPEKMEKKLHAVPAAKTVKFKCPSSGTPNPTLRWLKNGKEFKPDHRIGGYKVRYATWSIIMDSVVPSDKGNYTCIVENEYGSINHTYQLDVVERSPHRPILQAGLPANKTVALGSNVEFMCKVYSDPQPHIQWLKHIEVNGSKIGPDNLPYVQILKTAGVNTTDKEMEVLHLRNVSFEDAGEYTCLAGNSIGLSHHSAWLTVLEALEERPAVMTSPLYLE

T3: hFGFR4-Fc (human, UniProt P22455 22-369, biotinylated with biotin-LC-NHS)
T3 construct: Bought, R&D Systems, printed Cat. No. 685-MF
T3 sequence (looked up): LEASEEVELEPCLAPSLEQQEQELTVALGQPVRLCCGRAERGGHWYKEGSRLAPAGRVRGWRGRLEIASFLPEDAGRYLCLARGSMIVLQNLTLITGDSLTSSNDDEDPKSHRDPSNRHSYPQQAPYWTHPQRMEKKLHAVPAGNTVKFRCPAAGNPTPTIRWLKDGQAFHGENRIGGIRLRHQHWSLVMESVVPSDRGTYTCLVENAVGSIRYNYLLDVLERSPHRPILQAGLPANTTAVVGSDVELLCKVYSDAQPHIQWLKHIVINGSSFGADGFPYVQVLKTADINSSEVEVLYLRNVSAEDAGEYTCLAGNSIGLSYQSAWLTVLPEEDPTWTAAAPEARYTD

T4: hFGFR3-Fc (IIIb) (human, UniProt P22607-2 23-377, biotinylated with biotin-LC-NHS)
T4 construct: Bought, R&D Systems 1264-FR
T4 sequence (looked up): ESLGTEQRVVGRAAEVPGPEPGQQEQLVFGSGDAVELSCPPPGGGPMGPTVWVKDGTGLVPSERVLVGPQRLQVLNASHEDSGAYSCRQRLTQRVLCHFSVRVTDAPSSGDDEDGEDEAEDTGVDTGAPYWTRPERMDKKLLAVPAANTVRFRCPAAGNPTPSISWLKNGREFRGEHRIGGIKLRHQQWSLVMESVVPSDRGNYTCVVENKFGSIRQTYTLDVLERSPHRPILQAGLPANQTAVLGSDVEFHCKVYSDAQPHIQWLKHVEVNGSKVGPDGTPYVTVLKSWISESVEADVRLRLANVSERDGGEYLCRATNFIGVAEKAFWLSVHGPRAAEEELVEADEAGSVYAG

T5: hFGFR2β-Fc (IIIb) (human, UniProt P21802 22-377, biotinylated with biotin-LC-NHS)
T5 construct: also called FGFR2-2β Fc (IIIb)
T5 chain: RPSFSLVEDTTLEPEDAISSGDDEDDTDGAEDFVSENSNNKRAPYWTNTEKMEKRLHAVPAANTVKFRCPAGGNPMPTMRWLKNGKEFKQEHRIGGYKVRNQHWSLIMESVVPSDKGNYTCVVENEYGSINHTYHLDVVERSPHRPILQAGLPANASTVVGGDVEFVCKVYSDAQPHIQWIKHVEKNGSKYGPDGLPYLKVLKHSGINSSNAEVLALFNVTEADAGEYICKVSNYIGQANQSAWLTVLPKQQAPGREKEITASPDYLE

T6: hFGFR2α-Fc (IIIb) (human, UniProt P21802 22-377, biotinylated with biotin-LC-NHS)
T6 construct: Bought, R&D Systems 663-FR, soluble Fc fusion
T6 chain: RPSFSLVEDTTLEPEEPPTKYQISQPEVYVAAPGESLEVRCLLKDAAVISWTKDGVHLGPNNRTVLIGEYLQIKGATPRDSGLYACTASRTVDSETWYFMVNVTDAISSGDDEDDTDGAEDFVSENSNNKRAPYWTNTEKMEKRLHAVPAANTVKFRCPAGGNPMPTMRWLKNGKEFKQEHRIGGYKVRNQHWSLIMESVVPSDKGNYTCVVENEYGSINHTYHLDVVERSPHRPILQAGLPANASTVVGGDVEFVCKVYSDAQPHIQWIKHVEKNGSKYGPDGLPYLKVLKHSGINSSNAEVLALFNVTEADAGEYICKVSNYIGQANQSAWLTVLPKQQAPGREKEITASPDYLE

B1: TPP-1398 (antibody, human IgG1, lambda, V domains shown)
VH: EVQLLESGGGLVQPGGSLRLSCAASGFTFSSYAMSWVRQAPGKGLEWVSAISRSGGSTYYADSVKGRFTISRDNSKNTLYLQMNSLRAEDTAVYYCARVRYIWNEGDWFDPWGQGTLVTVSS
VL: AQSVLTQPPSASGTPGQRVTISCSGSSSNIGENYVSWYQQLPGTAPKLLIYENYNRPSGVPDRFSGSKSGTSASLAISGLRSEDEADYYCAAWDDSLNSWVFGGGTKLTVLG
notes: Matured variant of M048-D01
B2: TPP-1400 (antibody, human IgG1, lambda, V domains shown)
VH: EVQLLESGGGLVQPGGSLRLSCAASGFTFSSYAMSWVRQAPGKGLEWVSAISRSGGSTYYADSVKGRFTISRDNSKNTLYLQMNSLRAEDTAVYYCARVRYIWNEGDWFDPWGQGTLVTVSS
VL: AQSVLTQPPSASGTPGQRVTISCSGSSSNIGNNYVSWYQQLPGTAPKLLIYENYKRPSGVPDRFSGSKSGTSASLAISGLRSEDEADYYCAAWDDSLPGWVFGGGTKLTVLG
notes: Matured variant of M048-D01
B3: TPP-1401 (antibody, human IgG1, lambda, V domains shown)
VH: EVQLLESGGGLVQPGGSLRLSCAASGFTFSSYAMSWVRQAPGKGLEWVSAISKSGGSTFYADSVKGRFTISRDNSKNTLYLQMNSLRAEDTAVYYCARVRYIWNEGDWFDPWGQGTLVTVSS
VL: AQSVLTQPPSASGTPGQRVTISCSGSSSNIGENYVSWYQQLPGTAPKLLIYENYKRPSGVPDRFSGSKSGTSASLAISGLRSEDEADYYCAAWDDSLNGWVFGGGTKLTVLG
notes: Matured variant of M048-D01
B4: TPP-1402 (antibody, human IgG1, lambda, V domains shown)
VH: EVQLLESGGGLVQPGGSLRLSCAASGFTFSSYAMSWVRQAPGKGLEWVSAISKSGGSTFYADSVKGRFTISRDNSKNTLYLQMNSLRAEDTAVYYCARVRYIWNHGDWFDPWGQGTLVTVSS
VL: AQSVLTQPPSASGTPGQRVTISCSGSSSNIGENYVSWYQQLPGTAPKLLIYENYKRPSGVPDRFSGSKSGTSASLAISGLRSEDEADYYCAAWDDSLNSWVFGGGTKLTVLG
notes: Matured variant of M048-D01
B5: TPP-1399 (antibody, human IgG1, lambda, V domains shown)
VH: EVQLLESGGGLVQPGGSLRLSCAASGFTFSSYAMSWVRQAPGKGLEWVSAISKSGGSTFYADSVKGRFTISRDNSKNTLYLQMNSLRAEDTAVYYCARVRYKWGEGDWFDPWGQGTLVTVSS
VL: AQSVLTQPPSASGTPGQRVTISCSGSSSNIGENYVSWYQQLPGTAPKLLIYENYKRPSGVPDRFSGSKSGTSASLAISGLRSEDEADYYCAAWDDSGNSWVFGGGTKLTVLG
notes: Matured variant of M048-D01
B6: M017-B02 (soluble Fab) (Fab, V domains shown)
VH: EVQLLESGGGLVQPGGSLRLSCAASGFTFRTSGMHWVRQAPGKGLEWVAVISYDGSNKYYADSVKGRFTISRDNSKNTLYLQMNSLRAEDTAVYYCARESPGYDFEYWGQGTLVTVSS
VL: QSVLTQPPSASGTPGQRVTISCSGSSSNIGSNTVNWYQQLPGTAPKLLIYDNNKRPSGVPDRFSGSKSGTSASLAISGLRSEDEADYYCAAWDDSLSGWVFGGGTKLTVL
notes: Soluble Fab from E. coli, purified through its His-tag
B7: M047-D08 (soluble Fab) (Fab, V domains shown)
VH: EVQLLESGGGLVQPGGSLRLSCAASGFTFRTSGMHWVRQAPGKGLEWVAVISYDGSNKYYADSVKGRFTISRDNSKNTLYLQMNSLRAEDTAVYYCARESPGYDFEYWGQGTLVTVSS
VL: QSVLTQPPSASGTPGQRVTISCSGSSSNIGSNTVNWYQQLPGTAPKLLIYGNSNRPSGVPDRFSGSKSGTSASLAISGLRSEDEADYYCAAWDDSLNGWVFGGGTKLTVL
notes: as for B6
B8: M054-D03 (soluble Fab) (Fab, V domains shown)
VH: EVQLLESGGGLVQPGGSLRLSCAASGFTFSNYGMHWVRQAPGKGLEWVAVISYDGSNKYYADSVKGRFTISRDNSKNTLYLQMNSLRAEDTAVYYCAKETNDVPFDYWGQGTLVTVSS
VL: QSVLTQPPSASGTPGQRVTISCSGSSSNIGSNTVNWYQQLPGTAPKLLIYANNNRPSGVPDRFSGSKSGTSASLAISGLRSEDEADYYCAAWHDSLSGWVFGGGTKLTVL
notes: as for B6

Tests used:
[1] = molecular target: T7, recombinant human FGFR2 (Met 1-Glu 377) with C-terminal polyhistidine tag (human, UniProt P21802 22-377); assay: protein binding ELISA; against TPP-1403
T7 construct: The range is that of the expressed DNA and begins at Met 1; also called His-tagged FGFR2; recombinant human FGFR2-IIIc molecule
Description: (§1) Two different types of ELISA were used to determine the binding improvement of mutated variants: a) Peptide Binding ELISA: a synthetic peptide comprising the amino acid sequence of the epitope linked C-terminally to a biotinylated lysine […]-Ttds-Lys(Biotin) (peptide sequence derived from SEQ ID NO:63, synthesized by JPT Peptide Technology GmbH, Berlin, Germany), and b) Recombinant Protein Binding ELISA: recombinant human FGFR2 (DNA sequence of human FGFR2 (NP 000132.3) Met 1-Glu 377, fused with a polyhistidine tag at the C-terminus; #10824-1-1081-1, Sin θ Biological Inc., Beijing, China).
(§2) Briefly, in both ELISA formats MTP plates (384 well Maxisorp, Nunc) were coated with 20 μl, anti-human IgG Fc specific (#12136; sigma) at 2.2 μg/ml for 2.5 h at 37° C. in coating buffer (#121125 Candor Bioscience GmbH). […] Anti-FGFR2 variants were immobilized in concentrations of 0.035 μg/ml (peptide based assay) or 0.2 μg/ml (recombinant human FGFR2 protein based assay) in 10% Smart Block in PBST depending on the format and variants to be analyzed by incubation of 20 μl for one hour at 20-22° C. After one washing step using 50 μl PBST, 20 μl quadruplets of the antigen dilution series in 10% SmartBlock in PBST with a maximum concentration of 100 nM were added and incubated for 1 h at 20-22° C. and the washing step was repeated 3 times. For the detection of the biotinylated epitope peptide 20 μl of streptavidine/POD conjugate (# S5512, Sigma) in a 1:1000 dilution in 10% SmartBlock in PBST were applied for one hour at 20-22° C. For the detection of the recombinant FGFR2 protein 20 μl of anti-His/HRP conjugate (#71840, novagen) in a 1:10000 dilution in 10% SmartBlock in PBST were applied for one hour at 20-22° C. After 3 washing steps 20 μl of 10 μM amplex red substrate (# A12222, Invitrogen) in 50 mM Sodium hydrogen phosphate, pH 7.6, were added and the fluorescence signal was detected using a common fluorescence reader, e.g. Tecan M1000. EC50 values were evaluated by fitting the data (Sigmoida) dose-response, variable slope, bottom set to background; GraphPad Prism software).

[2] = molecular target: T1, RPSFSLVEDTTLEPEG-Ttds-Lys(Biotin); assay: peptide binding ELISA, antibody captured by anti-human IgG Fc, biotinylated peptide titrated
Description: as §1, §2

[3] = molecular target: T1, RPSFSLVEDTTLEPEG-Ttds-Lys(Biotin); assay: peptide binding ELISA; against TPP-1403
Description: as §1, §2

[4] = molecular target: T7, recombinant human FGFR2 (Met 1-Glu 377) …; assay: protein binding ELISA, antibody captured by anti-human IgG Fc, FGFR2-His titrated
Description: as §1, §2

hFGFR1β-Fc (IIIc) = molecular target: T2, hFGFR1β-Fc (IIIc); assay: ELISA on coated biotinylated Fc fusion
Description: (§3) For the ELISA 96-well plates pre-coated with streptavidin (Pierce, 15500) were coated over night at 4° C. with 1 μg/ml biotinylated protein. Wells coated with biotinylated TRAIL-Fc served as a reference. The next day plates were washed 3 times with PBST, treated with blocking reagent, and washed again 3 times with PBST. 100 μl of purified Fabs (1 μg/ml) were added and incubated for 1 h at r.t. After washing 3 times with PBST, an anti-hIgG (Fab-specific) coupled to HRP (1:2500 diluted; Sigma; A 0293) was added and incubated for 1 h at Lt. Color reaction was developed by addition of 50 μl TMB (Invitrogen, 2023) and stopped after 5-15 min by adding 50 μl H₂SO₄ (Merck, 1120801000). Colorimetric reaction was recorded at […] in a plate reader (Tecan). Wells containing TRAIL-Fc were used as background values and the signal to background ratios were calculated as summarized in Table 4.

hFGFR4-Fc = molecular target: T3, hFGFR4-Fc; assay: ELISA on coated biotinylated Fc fusion
Description: as §3

hFGFR3-Fc (IIIb) = molecular target: T4, hFGFR3-Fc (IIIb); assay: ELISA on coated biotinylated Fc fusion
Description: as §3

mFGFR2β-Fc (IIIb) = molecular target: T8, mFGFR2β-Fc (IIIb) (murine, UniProt P21803-2 22-263, limits assumed, biotinylated with biotin-LC-NHS); assay: ELISA, 1 ug/ml Fab on coated antigen; grade of signal to background (+ 2-3, ++ 3-5, +++ >5)
T8 construct: Bought, R&D Systems 708-MF
Description: as §3

hFGFR2β-Fc (IIIb) = molecular target: T5, hFGFR2β-Fc (IIIb); assay: as above
Description: as §3

hFGFR2α-Fc (IIIb) = molecular target: T6, hFGFR2α-Fc (IIIb); assay: as above
Description: as §3

T8 sequence (P21803 other isoform, or with tags, fused parts or gaps limits assumed): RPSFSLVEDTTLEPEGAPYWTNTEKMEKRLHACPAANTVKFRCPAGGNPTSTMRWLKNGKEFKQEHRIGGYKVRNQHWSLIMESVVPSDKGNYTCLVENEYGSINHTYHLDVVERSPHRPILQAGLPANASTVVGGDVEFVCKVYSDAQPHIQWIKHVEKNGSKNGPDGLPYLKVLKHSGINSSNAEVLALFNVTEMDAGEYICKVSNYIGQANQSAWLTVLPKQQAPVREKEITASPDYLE

Binder	fold EC50 reduction [1]	EC50 [2]	fold EC50 reduction [3]	EC50 [4]	binding result (hFGFR1β-Fc (IIIc))	binding result (hFGFR4-Fc)	binding result (hFGFR3-Fc (IIIb))	ELISA signal to background ratio (mFGFR2β-Fc (IIIb))	ELISA signal to background ratio (hFGFR2β-Fc (IIIb))	ELISA signal to background ratio (hFGFR2α-Fc (IIIb))
B1	39 fold	5 pM	> 2000 fold	200 pM						
B2	17 fold	9 pM	> 1100 fold	480 pM						
B3	39 fold	6 pM	> 1700 fold	200 pM						
B4	37 fold	7 pM	> 1500 fold	220 pM						
B5	39 fold	6 pM	> 1500 fold	210 pM						
B6					no binding	no binding	no binding	> 5 ratio	> 5 ratio	> 5 ratio
B7					no binding	no binding	no binding	> 5 ratio	> 5 ratio	> 5 ratio
B8					no binding	no binding	no binding	3 to 5 ratio	2 to 3 ratio	3 to 5 ratio
